Source: publication PMC9717613

Assays:
purified protein [1] = substrate: Nc1c(O)cccc1C(=O)CC(N)C(=O)O; experiment: purified protein; details: HsKYNase_66; racemic substrate; in D2O-PBS (H2O value only in Figure 1f)
purified protein [2] = substrate: Nc1ccccc1C(=O)C[C@H](N)C(=O)O; experiment: purified protein; assay type: biochemical, Homo sapiens; details: 0-2 mM substrate, 0.10-1.00 uM enzyme

B1: HsKYNase (human kynureninase) (Homo sapiens; … (protein)
chain: MEPSSLELPADTVQRIAAELKCHPTDERVALHLDEEDKLRHFRECFYIPKIQDLPPVDLSLVNKDEDAIYFNGNSLGLQPKMVKTYLEEELDKWAKIAIYGWFEGDSPWIHYDESIVGLMKDIVGANEKEIVLMNTLTVNLHLLMLSFFKPTPKRYKILLEAKAFPSDHYAIESQLQLHGLNIEESMRIIKPREGEETLRIEDILEVIEKEGDSIAVILFSGIHYYTGQHFNIPAITKAGQAKGCYVGFDLAHAVGNVELYLHDWGVDFACWCGYKYLNSSPGGIAGAFIHEKHAHTIKPALVGWFGHELSTRFKMDNKLQLIPGVCGFRCSTPPILLVCILHASLEIFKQATMKALRKKSVLLTGYLEYLIKHNYGKDKAATKKPVVNIITPSHVEERGCQLTLTFNVPNKDVFQELEKRGVVCDKRNPNGIRVAPVPLYNSFHDVYKFTNLLTSILDSAETKN
- Km (purified protein [1]): 1370 ± 200 µM
- Km (purified protein [2]; HsKYNase_66): 27 µM
- kcat (purified protein [2]; HsKYNase_66): 1.54 s⁻¹
- kcat/Km (purified protein [2]; HsKYNase_66): 56000 M⁻¹ s⁻¹

B2: HsKYNase (human kynureninase) (Homo sapiens) (protein)
chain: MEPSSLELPADTVQRIAAELKCHPTDERVALHLDEEDKLRHFRECFYIPKIQDLPPVDLSLVNKDENAIYFLGNSLGLQPKMVKTYLEEELDKWAKIAAYGHEVGKRPWITGDESIVGLMKDIVGANEKEIALMNALTVNLHLLMLSFFKPTPKRYKILLEAKAFPSDHYAIESQLQLHGLNIEESMRMIKPREGEETLRIEDILEVIEKEGDSIAVILFSGVHFYTGQHFNIPAITKAGQAKGCYVGFDLAHAVGNVELYLHDWGVDFACWCSYKYLNAGAGGIAGAFIHEKHAHTIKPALVGWFGHELSTRFKMDNKLQLIPGVCGFRISNPPILLVCSLHASLEIFKQATMKALRKKSVLLTGYLEYLIKHNYGKDKAATKKPVVNIITPSHVEERGCQLTITFSVPNKDVFQELEKRGVVCDKRNPNGIRVAPVPLYNSFHDVYKFTNLLTSILDSAETKN
- Km (purified protein [2]): 1570 µM
- kcat (purified protein [2]): 0.18 s⁻¹
- kcat/Km (purified protein [2]): 110 M⁻¹ s⁻¹

B3: HsKYNase (human kynureninase) (Homo sapiens; E103Q/F225Y/I331V/I405L/L72N/M189I/N67D/S274G/S408N) (protein)
chain: MEPSSLELPADTVQRIAAELKCHPTDERVALHLDEEDKLRHFRECFYIPKIQDLPPVDLSLVNKDEDAIYFNGNSLGLQPKMVKTYLEEELDKWAKIAAYGHQVGKRPWITGDESIVGLMKDIVGANEKEIALMNALTVNLHLLMLSFFKPTPKRYKILLEAKAFPSDHYAIESQLQLHGLNIEESMRIIKPREGEETLRIEDILEVIEKEGDSIAVILFSGVHYYTGQHFNIPAITKAGQAKGCYVGFDLAHAVGNVELYLHDWGVDFACWCGYKYLNAGAGGIAGAFIHEKHAHTIKPALVGWFGHELSTRFKMDNKLQLIPGVCGFRVSNPPILLVCSLHASLEIFKQATMKALRKKSVLLTGYLEYLIKHNYGKDKAATKKPVVNIITPSHVEERGCQLTLTFNVPNKDVFQELEKRGVVCDKRNPNGIRVAPVPLYNSFHDVYKFTNLLTSILDSAETKN
- Km (purified protein [2]; HsKYNase_46): 190 µM
- kcat (purified protein [2]; HsKYNase_46): 0.58 s⁻¹
- kcat/Km (purified protein [2]; HsKYNase_46): 3100 M⁻¹ s⁻¹

B4: HsKYNase (human kynureninase) (Homo sapiens; A136T/A99I/E103F/F225Y/H102W/I110M/I331C/I405L/K106E/L72N/M189I/N333T/N67D/R107S/S274G/S341I/S408N/V104E) (protein)
chain: MEPSSLELPADTVQRIAAELKCHPTDERVALHLDEEDKLRHFRECFYIPKIQDLPPVDLSLVNKDEDAIYFNGNSLGLQPKMVKTYLEEELDKWAKIAIYGWFEGESPWMTGDESIVGLMKDIVGANEKEIALMNTLTVNLHLLMLSFFKPTPKRYKILLEAKAFPSDHYAIESQLQLHGLNIEESMRIIKPREGEETLRIEDILEVIEKEGDSIAVILFSGVHYYTGQHFNIPAITKAGQAKGCYVGFDLAHAVGNVELYLHDWGVDFACWCGYKYLNAGAGGIAGAFIHEKHAHTIKPALVGWFGHELSTRFKMDNKLQLIPGVCGFRCSTPPILLVCILHASLEIFKQATMKALRKKSVLLTGYLEYLIKHNYGKDKAATKKPVVNIITPSHVEERGCQLTLTFNVPNKDVFQELEKRGVVCDKRNPNGIRVAPVPLYNSFHDVYKFTNLLTSILDSAETKN
- Km (purified protein [2]; HsKYNase_64): 36 µM
- kcat (purified protein [2]; HsKYNase_64): 0.24 s⁻¹
- kcat/Km (purified protein [2]; HsKYNase_64): 6700 M⁻¹ s⁻¹

B5: HsKYNase (human kynureninase) (Homo sapiens; … (protein)
chain: MEPSSLELPADTVQRIAAELKCHPTDERVALHLDEEDKLRHFRECFYIPKIQDLPPVDLSLVNKDEDTIYFNGNSLGLQPKMVKTYLEEELDKWAKIAIYGWFEGDSPWLHYDESIVGLMKDIVGANEKEIALMNTLTVNLHLLMLSFFKPTPKRYKILLEAKAFPSDHYAIESQLQLHGLNIEESMRIIKPREGEETLRIEDILEVIEKEGDSIAVILFSGVHYYTGQHFNIPAITKAGQAKGCYVGFDLAHAVGNVELYLHDWGVDFACWCNYKYLNSSPGGIAGAFIHEKHAHTIKPALVGWWGHELSTRFKMDNKLQLIPGVCGFRCSTPPILLVCILHASLEIFKQATMKALRKKSVLLTGYLEYLIKHNYGKDKAATKKPVVNIITPSHVEERGCQLTLTFNVPNKDVFQELEKRGVVCDKRNPNGIRVAPVPLYNSFHDVYKFTNLLTSILDSAETKN
- Km (purified protein [2]; HsKYNase_95): 16 µM
- kcat (purified protein [2]; HsKYNase_95): 0.85 s⁻¹
- kcat/Km (purified protein [2]; HsKYNase_95): 55000 M⁻¹ s⁻¹
